Measured values taken from PMC4176176, “The CRISPR-associated Cas4 protein Pcal_0546 from Pyrobaculum calidifontis contains a [2Fe-2S] cluster: crystal structure and nuclease activity” (Nucleic Acids Research, 2014).

Target: the molecule itself
Test: SEC; size-exclusion chromatography of the purified protein on a Superdex S200 10/300 GL column

B1: Cas4 protein SSO1391 from Sulfolobus solfataricus (enzyme, UniProt Q97YD4 1-291, looked up)
chain: MFFTHSDMLLLSKRIKKLPKNVDEELRGWNWSEPPVYTRSLSQVSISEMVYCSTLRNVYLKVKGFRGEIGRQILQGSLIHTIYAIGIEAIKRFIYSRESIDGSTLRTLMGDEFYSLLKDLREEEGIYAKVLWDHITNIYSAELDRVRSKFTNLTRDSLVSQVVPFYVEFPVDGSLLGLTNLRVDAFIPHLPLIAEMKTGKYRYTHELSLAGYALAIESQYEIPIDFGYLCYVTVTEKEVKNNCKLIPISDSLRSEFLDMRDKAQDIMDKGVDPGIAKDCESDCMFYKVCHP
notes: Cas4 protein SSO1391 (DUF911 family), Sulfolobus solfataricus; predicted molecular mass 35.9 kDa
Q: B1 was tested. Which “stoichiometry N” value did it give?
A: 2
